Results published in PMC12820563, “FoxP3 forms a head-to-head dimer in vivo and stabilizes its multimerization on adjacent microsatellites”.

Columns and labels:
Experiment in all cases: EMSA; monomer; Pull-down: 20 mM Tris-HCl pH 7.5, 100 mM NaCl, 1.5 mM MgCl2, room temperature, 0.4 uM MBP protein, 0.1 uM DNA (NFAT 0.2 uM); EMSA: 20 mM HEPES pH 7.5, 150 mM NaCl, 1.5 mM MgCl2, 2 mM DTT, 4 C, 0.2 uM DNA (RBR-FKH 0.8 uM, NFAT 0.4 uM)
[1] = biological target: T1, FoxP3RBR-FoxP1FKH;NFAT1 DBD (Mus musculus;Mus musculus?, UniProt Q99JB6;Q60591 284-336+P58462:493-579;394-680, internal_change|); settings: protein: recombinant;recombinant; tags: none (His6-NusA cleaved);none (His6-NusA cleaved); chain copies: 2;1; blunt
T1 sequence 1: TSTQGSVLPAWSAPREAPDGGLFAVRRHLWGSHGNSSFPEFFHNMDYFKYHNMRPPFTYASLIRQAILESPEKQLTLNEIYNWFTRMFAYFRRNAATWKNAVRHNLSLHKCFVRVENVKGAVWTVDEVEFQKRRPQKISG
T1 sequence 2: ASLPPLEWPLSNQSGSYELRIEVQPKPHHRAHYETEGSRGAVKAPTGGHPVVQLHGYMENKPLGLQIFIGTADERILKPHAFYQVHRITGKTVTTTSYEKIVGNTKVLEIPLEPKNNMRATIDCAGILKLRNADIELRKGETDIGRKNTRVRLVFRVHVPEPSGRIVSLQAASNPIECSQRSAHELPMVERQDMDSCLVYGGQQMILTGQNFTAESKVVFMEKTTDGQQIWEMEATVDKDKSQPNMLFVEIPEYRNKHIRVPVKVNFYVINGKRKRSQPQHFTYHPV

FoxP3 RBR-FKH;NFAT1 DBD = biological target: T2, FoxP3 RBR-FKH;NFAT1 DBD (Mus musculus;Mus musculus?, UniProt Q99JB6;Q60591 284-423;394-680, |); settings: protein: recombinant;recombinant; tags: none (His6-NusA cleaved);none (His6-NusA cleaved); copies: 1;1; blunt
T2 sequence 1: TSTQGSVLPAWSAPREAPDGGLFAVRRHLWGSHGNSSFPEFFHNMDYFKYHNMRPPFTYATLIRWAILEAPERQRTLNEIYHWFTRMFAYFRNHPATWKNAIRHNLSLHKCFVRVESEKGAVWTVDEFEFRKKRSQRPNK
T2 sequence 2: T1 sequence 2

[2] = biological target: T3, FoxP1RBR-FoxP3FKH;NFAT1 DBD (Mus musculus;Mus musculus?, UniProt P58462;Q60591 427-492+Q99JB6:337-423;394-680, internal_change|); settings: protein: recombinant;recombinant; tags: none (His6-NusA cleaved);none (His6-NusA cleaved); copies: 1;1; blunt
T3 sequence 1: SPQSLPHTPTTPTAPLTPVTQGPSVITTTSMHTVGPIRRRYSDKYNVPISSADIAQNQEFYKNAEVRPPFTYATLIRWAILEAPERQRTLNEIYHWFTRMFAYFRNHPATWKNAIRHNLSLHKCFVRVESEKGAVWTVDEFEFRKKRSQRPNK
T3 sequence 2: T1 sequence 2

FoxP1 RBR-FKH;NFAT1 DBD = biological target: T4, FoxP1 RBR-FKH;NFAT1 DBD (Mus musculus;Mus musculus?, UniProt P58462;Q60591 427-579;394-680, |); settings: protein: recombinant;recombinant; tags: none (His6-NusA cleaved);none (His6-NusA cleaved); copies: 1;1; blunt
T4 sequence 1: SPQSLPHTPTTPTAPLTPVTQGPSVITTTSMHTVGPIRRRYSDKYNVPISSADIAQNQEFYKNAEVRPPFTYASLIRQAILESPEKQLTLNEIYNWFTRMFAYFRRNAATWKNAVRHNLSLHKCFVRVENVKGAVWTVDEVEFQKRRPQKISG
T4 sequence 2: T1 sequence 2

Measured: binding result

B1: DNA2 (NFAT sFKHM) (dsDNA)
DNA 1: TTAGGAAAATTTGTTTACTCCTCGCGGCAAA
DNA 2: TTTGCCGCGAGGAGTAAACAAATTTTCCTAA
binds: all assays above
